Article doi:10.1101/2022.01.16.476467 (bioRxiv, 2022)

T1: CASK full-length protein (recombinant) (Mus musculus, UniProt O70589-3 1-897)
T1 sequence (looked up): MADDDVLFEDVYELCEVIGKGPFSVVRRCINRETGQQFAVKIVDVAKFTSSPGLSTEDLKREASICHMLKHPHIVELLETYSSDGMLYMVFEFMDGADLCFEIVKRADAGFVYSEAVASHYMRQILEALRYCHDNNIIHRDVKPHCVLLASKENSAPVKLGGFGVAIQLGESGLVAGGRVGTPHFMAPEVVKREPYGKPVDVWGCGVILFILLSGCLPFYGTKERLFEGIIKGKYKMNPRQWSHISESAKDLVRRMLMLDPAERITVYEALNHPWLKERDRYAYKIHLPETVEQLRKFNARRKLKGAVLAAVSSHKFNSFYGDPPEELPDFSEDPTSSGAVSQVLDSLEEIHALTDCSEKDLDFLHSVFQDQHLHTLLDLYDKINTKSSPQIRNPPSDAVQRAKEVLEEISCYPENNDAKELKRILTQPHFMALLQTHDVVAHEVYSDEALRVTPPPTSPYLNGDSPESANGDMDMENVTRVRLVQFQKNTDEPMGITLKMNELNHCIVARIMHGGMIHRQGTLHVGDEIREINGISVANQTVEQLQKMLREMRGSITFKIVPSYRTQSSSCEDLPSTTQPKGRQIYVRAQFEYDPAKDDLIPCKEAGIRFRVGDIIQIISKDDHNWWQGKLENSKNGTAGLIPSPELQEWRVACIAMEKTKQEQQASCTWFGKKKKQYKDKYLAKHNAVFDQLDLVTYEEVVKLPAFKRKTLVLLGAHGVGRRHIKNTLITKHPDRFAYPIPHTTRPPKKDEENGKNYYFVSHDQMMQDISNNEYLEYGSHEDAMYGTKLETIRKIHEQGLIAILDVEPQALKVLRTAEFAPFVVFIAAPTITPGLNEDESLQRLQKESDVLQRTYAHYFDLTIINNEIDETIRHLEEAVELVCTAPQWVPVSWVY

T2: CASK_CAMK domain (residues 1-345) (Mus musculus, UniProt O70589-3 1-345)
T2 sequence (looked up): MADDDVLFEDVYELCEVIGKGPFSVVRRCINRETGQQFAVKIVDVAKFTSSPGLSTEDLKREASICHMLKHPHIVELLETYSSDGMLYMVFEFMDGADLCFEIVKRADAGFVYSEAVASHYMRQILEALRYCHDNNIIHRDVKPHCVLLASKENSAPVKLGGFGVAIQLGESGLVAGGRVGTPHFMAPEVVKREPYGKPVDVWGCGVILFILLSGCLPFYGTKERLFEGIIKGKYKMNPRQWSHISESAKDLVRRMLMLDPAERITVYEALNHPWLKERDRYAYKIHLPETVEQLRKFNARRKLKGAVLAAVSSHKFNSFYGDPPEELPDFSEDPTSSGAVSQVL


What was measured:
[1] = target: T1, CASK full-length protein (recombinant); assay: ITC
[2] = target: T2, CASK_CAMK domain (residues 1-345); assay: ITC
[3] = target: T2, CASK_CAMK domain (residues 1-345); assay: SEC-MALS

Binder	Kd [1]	Kd [2]	stoichiometry N [3]
Caskin1_N-terminal (residues 1-674) (domain or fragment) not shown	~760 nM		
Caskin1 extended CID protein (residues 371-466) (domain or fragment, Mus musculus, UniProt Q6P9K8-1 371-466, looked up) PPEEIWVLRKPFAGGDRSGSLSNVAGGRSTGGHALHAGSEGVKLLATVLSQKSVSESSPGDSPVKPPEGSSGAARSQPPAAHAGQVYGEQPPKKLE		940 ± 90 nM	~1
